According to patent publication US20260116991A1:

Target: murine GPC3-his protein (Sino Biological, Cat. No. 50989-M08B) (murine) (UniProt Q8CFZ4)
Assay: ELISA, coated murine GPC3-His

Sequence of murine GPC3-his protein (Sino Biological, Cat. No. 50989-M08B) (murine) (Q8CFZ4 25-558 limits assumed): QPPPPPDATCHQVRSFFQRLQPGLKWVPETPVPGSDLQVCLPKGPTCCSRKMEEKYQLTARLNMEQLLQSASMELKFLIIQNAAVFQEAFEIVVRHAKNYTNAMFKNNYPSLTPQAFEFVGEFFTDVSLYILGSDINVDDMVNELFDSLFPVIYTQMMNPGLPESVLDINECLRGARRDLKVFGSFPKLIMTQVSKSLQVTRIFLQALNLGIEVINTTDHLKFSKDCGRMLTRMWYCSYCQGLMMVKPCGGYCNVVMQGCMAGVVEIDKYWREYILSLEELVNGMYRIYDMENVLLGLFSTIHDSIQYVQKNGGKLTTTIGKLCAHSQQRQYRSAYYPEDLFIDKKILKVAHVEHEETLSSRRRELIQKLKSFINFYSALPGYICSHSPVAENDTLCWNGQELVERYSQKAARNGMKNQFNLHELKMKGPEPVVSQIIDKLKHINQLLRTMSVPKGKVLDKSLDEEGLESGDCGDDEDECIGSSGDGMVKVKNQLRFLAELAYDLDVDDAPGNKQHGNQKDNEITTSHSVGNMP

OD450 at 0.0001 nM antibody | OD450 at 0.001 nM antibody | OD450 at 0.01 nM antibody | OD450 at 0.1 nM antibody | OD450 at 1 nM antibody | OD450 at 10 nM antibody | OD450 at 100 nM antibody | Binder
0.05 OD450 nm | 0.07 OD450 nm | 0.16 OD450 nm | 0.72 OD450 nm | 0.76 OD450 nm | 0.8 OD450 nm | 0.54 OD450 nm | F1.120.16 human-murine chimeric antibody (antibody, human IgG1, kappa, V domains shown) VH: EFQLQQSGPELVKPGASVKISCKASGYSFTDYNMNWVKQSNGKSLEWIGLIHPKFSVTSYNRKFKGKATLTVDQSSSTAYMQLNSLTSEDSAVYYCARWAGDYFDYWGQGTTLTVSS VL: DIVLTQSPATLSVTPGDSVSLSCRASQSISNNLHWYQQKSHESPRLLIKYASQSISGIPSRFSGSGSGTDFTLTINSVETEDFGMYFCQQSNSWPQTFGGGTKLEIKR
0.05 OD450 nm | 0.05 OD450 nm | 0.07 OD450 nm | 0.34 OD450 nm | 0.4 OD450 nm | 0.7 OD450 nm | 0.6 OD450 nm | F1.115.8 human-murine chimeric antibody (antibody, human IgG1, kappa, V domains shown) VH: EVQLQQSGPELVKPGASVKMSCKASGYTFTEYYMHWVKQSHGKSLEWIGYIYPNNGGNGYNQKFKGKATLTVDKSSSTAYMGLRSLTSEDSAVYYCVRGYYSNWYFDVWGTGTTVTVSS VL: DVLMTQTPLSLPVSLGDQASISCRSSQSIVHSNGKTYLEWYLQKPGQSPKLLIYKVSNRFSGVPDRFSGSGSGTDFTLKISRVEAEDLGVYYCFQGSHVPFTFGSGTKLEIKR
